Measured values taken from article PMC7851962.

Target: GFP-EB1-A7 (UniProt Q15691)
Test: co-IP

UniProt Q15691, sequence (Q15691 whole entry): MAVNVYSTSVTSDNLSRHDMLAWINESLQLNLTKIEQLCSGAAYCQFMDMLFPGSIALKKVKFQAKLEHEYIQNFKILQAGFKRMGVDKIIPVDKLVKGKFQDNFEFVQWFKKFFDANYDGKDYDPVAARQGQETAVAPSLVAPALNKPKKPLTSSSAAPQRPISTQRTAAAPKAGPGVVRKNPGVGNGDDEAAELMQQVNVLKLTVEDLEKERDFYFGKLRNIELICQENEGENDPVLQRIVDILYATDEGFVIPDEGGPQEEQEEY

percent of the amount co-immunoprecipitated with WT EB1: 50%
B1: Arl4D^WT expressed in COS-7 cells (natural protein)
chain: MGNHLTEMAPTASSFLPHFQALHVVVIGLDSAGKTSLLYRLKFKEFVQSVPTKGFNTEKIRVPLGGSRGITFQVWDVGGQEKLRPLWRSYTRRTDGLVFVVDAAEAERLEEAKVELHRISRASDNQGVPVLVLANKQDQPGALSAAEVEKRLAVRELAAATLTHVQGCSAVDGLGLQQGLERLYEMILKRKKAARGGKKRR
